Here are results for 21 sequences from the DeepSol protein solubility set.

The data set is described as follows: soluble on expression in E. coli; label from the status in PepcDB or PDB records.
With “MSLGCDSILSIDIGTTRIKAGLVDCNTLEITGRGSVSTPVSYPRKGWSEQDPEELWQAIVRASSAALEGFEASRVSGVIFSTYLAGVVLLDRDNYELTPIITWLDERAHGLPRELFSGVLKVSGYNLLHLVDLLRLTGGAPSKTGKDPLSKMVWLRENKPDLFTKAHTIGTLKTWVLAKTAEARLVSPDDAHLTWLADTRGGRAVWSPRLARRYGIPLEKLPGIAGPTDVAGGLVSSAARDLGLPQGIPVIVGAGDIASSAVGSGALAAGEYHIYVGTSSWIGVHSTRRLLDVRHYIGSLLSAKPGEYLVIGEQEIAGGMIDWILDVTGMDYRAVEDIHSIPPGSEGLIATPWLYGERTPIDDPHAKGVLVGLTLRHTKKHLVRAAVEGVALNIAWAMEHMTRLAGKPKLVRGVGGGFRLRTLAKVIASALNATIETVSQPEMAGVRGAGALAAAALKGSSIESEAGKIPVSWRAEADSNASKAYKDLLQIYQEIYSRLKSVFRRLSEGHHHHHH”, the “soluble on expression in E. coli” value is reported as “not soluble”.

As to “MSLSQVQVDRALAGLIVRAPLPAGWRAERMSALDVAAVAAVEQAAFAFPWSRGNFEDSLKSGHLGIVLRDGGNQVAGYLILMPVVDEMHLLNVTVAPAWQRQGLGRWLLRAAQALTLAHGFASLLLEVRPSNAGAIALYRRVGFAEIGRRKRYYPAENNTREDALVMRIACEAGGVEAAEGHHHHHH”, the “soluble on expression in E. coli” value is “not soluble”. With “MSLTITDWASTVNLNYDMSNKPVIAHVWKEQNANWLYGGWVCRSDRDENEGACDETKLPPGMLYGVTKIRLRFREQISHAETTLILDGQSGGFCLSTKISGGSVCKYLMQTCLSTFLQKSLRRYQKLAYGRLRWPWMEGHHHHHH”, the “soluble on expression in E. coli” value is given as “not soluble”.

With “MGSDKIHHHHHHAQKGEKTLTVEVSNEWTQNKTDEPIVIDLNNLKAGFNIKSATVWEGNKEIPSQLDDLNGDARADELAFLIDMPAKSNKSFRIILSSEKSEKNYPARTYAQMKAYGHNNKFANITGFSAAGTENVYSFVYHHGPAIESELVAYRIYFNEKQTVDPYSKVNKRLEIKETCFYPTKAQRANGYGDDALRVYNSGGVGALKGWNGTEATHIKPVVNRTERVLASGPVRAIVEAEVIGWEYQGNDLNMINRYTIYGGHRDMKVDVLFDRPLKQEVFAAGVQILKEGGHMSDHKGLTGSWGTDWPVTDTIGYVKETTGMGTFIPKYIGKEVQDGSNYLYTLQAPGQQHFHYYVTFTSKKESFGFKDMKDWFNYLPQWRKELEHPCKITIK”, the “soluble on expression in E. coli” value is on record as “not soluble”. “GPGSMQEEVTEHKYNIVFSRDPVPSGLSEEQYYPMRLSNGSAYLCVLPDITVEEKKTLQAEDSELDVPLSLEHVAVVNRALKNMCYTMEESWWTYRLCWGSGVEQFHRSAVAGDSKSNAPKQMKEDPHFVLGVAPPADVLDLRYGVNTKGLRYIYTIYSDGLTCDLTQLPRTTEVQLYCAREGEGNSPTMRVREAEVCRYIVSLTAKEVCLLGLKEIQQRYGVITCHETKPTNTVDWNNKQQG”: the “soluble on expression in E. coli” value was “not soluble”.

For “MSKEPGEDVDLFDMEQFQSSFKRILQRALKNVTVSFRVYEKDSVWIRVAWGTQYSQPNQYKPTFVVYYPQTPYAFISSCHLKNTVPLLHQALKVASKHHQIVHLDLRSRHLDSLKAIVFREYNQTCENYSSTTSLQEASLSMCLDSKITHENTEEKVRVHRVTQETFGTYPQPQLEFAQYKLETKFKSNIGGGLLADRKEPFRCLVKFSSPHLLEALKSLAPAGIADAPLSPLLTCIPSKKMNYFKIRDK”, the “soluble on expression in E. coli” value is on record as “not soluble”. With “MGSDKIHHHHHHMIKNLSKAKSTSKTSSTTSETLTPANYYDRWTDQSFMSATWFKKFLACEAEALAELTGKWQPVRDAKALVVGNWLHSYFESKQAHEKFKDEHPESISKRGPTKGQLKSDFKVANAMIQSLTNDHDFNLLYQGDKEVIVTGEIGGYPWKGKIDCLNLKQGYFVDLKTTADIYKVYWNPETREKESFVYAYNYPLQMAVYQELIKQQFGVTCKPYIVAVSKQDPPDKQAIDLPEYRLTNAMNQVLESQQHLQDIIKGEADPIQCGHCAYCRSTKKLESVVSADDLLID”, the “soluble on expression in E. coli” value is given as “not soluble”. In the case of “MAYPGHPGAGGGYYPGGYGGAPGGPAFPGQTQDPLYGYFAAVAGQDGQIDADELQRCLTQSGIAGGYKPFNLETCRLMVSMLDRDMSGTMGFNEFKELWAVLNGWRQHFISLDTDRSGTVDPQELQKALTTMGFRLSPQAVNSIAKRYSTNGKITFDDYIACCVKLRALTDSFRRRDTAQQGVVNFPYDDFIQCVMSV” it was “soluble”; in that of “SLDAEKQLANITMGLPLSPAADSARSARHALSLIATARPPAFITTIAKEVHRHTALAANTQSQQSIHTTTLARAKGEILRVIEILIEKMPTDVVDLLVEVMDIIMYCLEGSLVKKKGLQECFPAICRFYMVSYYERSHRIAVGARHGSVALYDIRTGKCQTIHGHKGPITAVSFAPDGRYLATYSNTDSHISFWQMNTSLLGSIGMLNSAPQLRCIKTYQVPPVQPASPGSHNALKLARLIWTSNRNVILMAHDGKEHRFMV”, “soluble”.

Regarding “MEHRYRTNLKKVFLSDSELNQLNINIDQSGCKSFSEYARRTLLDPGMNFITIDTNGYQDLVFELKRIGNNINQIARSVNQSQLISGEELQELKKGIGELIKEVDKEFNLQAQKLKEFHGHH”, the “soluble on expression in E. coli” value is given as “not soluble”.

Regarding “MAHHHHHHMNVRKSILNYLILHSSIVRRNHNKSYQKECRQSGSLNWMEKNRKMKSVRPNYFVCIPLSGNKGLVEELIKVQNHVASKFEMLKECAIERNKFHISLLILHVKKSQMVASKEAFREAIEEIKKLNHQAISFDTLETFRNDVLYAGLKEDSRKYVVNMIALLRDAFTKRDIHIFSNHKGKEEAREKTRPSGAIDKGIGNRTDKGAAVPSTYQCSEKEQITPHVTIMKNSYLRKIYANRKPQIFADYYADFNLSKLQTERVVPNKIQFLEMDTDSATSYYRVIDECGLP”, the “soluble on expression in E. coli” value was “not soluble”. Take “MFPVSSIGNDISSDLVRRKMNDLPESPTGNNLEALAPGIEKLKQTSIEMVTLLNTLQPGGKCIITGDFQKELAYLQNVILYNVSSLRLDFLGYNAQIIQRSDNTCELTINEPLKNQEISTGNININCPLKDIYNEIRRLNVIFSCGTGDIVDLSSLDLRNVDLDYYDFTDKHMANTILNPFKLNSTNFTNANMFQVNFVSSTQNATISWDYLLKITPVLISISDMYSEEKIKFVESCLNEPGDITEEQLKIMRFAIIKSIPRATLTDKLENELTKEIYKSSSKIINCLNRIKLTEMKEFSSEKIYDYIDIIIEDYENTKENAYLVVPQINYTMDLNIEDSSSEELLSDNTLEKDENSPDNGFEVGEYNTYEAYNSEKQYFTREDYTYDYDLLNAI”: the “soluble on expression in E. coli” value is given as “not soluble”. In the case of “MSGTNRVAANLNMLFTNLPLLQRYGAAASAGFKLVEVSIPYTEPAEKLREAADEYHLKHTLINAPPGNWDDGFRGLASLKSAKKEFRKSLDTAIEYAKALGCCRVHVMAGIPKSDDDLENAHQTYSENVRFAAEKFKEHKLICLIEPINKYTIPGYHLNNYEDAMDVIQMDQSNNLKIQYDTFHAQQINGQIGAIMRKLKDYIGYIQVAQVPNRGACDTRGEIDYHFIFDEIRSINPSWVIGAEYLDAKPSFNWIENMSLSF” it was “not soluble”. Under “IDKKLTTLADLFRPPIDLMHKGSFETAKECGQMQNKWLMINIQNVQDFACQCLNRDVWSNEAVKNIIREHFIFWQVYHDSEEGQRYIQFYKLGDFPYVSILDPRTGQKLVEWHQLDVSSFLDQVTGFLGEHGQLDGLSSS” stands “soluble”; under “MSLYENNVKDTKDFYNDIGHISWSVAPSQHYHVGIFELEKDSMEDAQNRTVEYMARKVAASDLDVLLDIGCGSGLTAVQISKKENCKIVGINISEKQLAIGKKLISKEKINSRVKLMNMDAHQLNFKSGMFDGAYALESIMHMNREKVLSEVHRVLKNGAPFSLCDWYVKKSLTPVEKRFLETITLGKYITKEQYFSLYQTQNFMDIEIEEWSNKILPTYKYWTTITDEMKEKLPDHLLYVIEENSKVLSDIAIEKLGYLQVNGIKREGHHHHHH”, “soluble”; under “ATLDVRGGYRSGSHAYETRLKVSEGWQNGWWASMESNTWNTIHDNKKENAALNDVQVEVNYAIKLDDQWTVRPGMLTHFSSNGTRYGPYVKLSWDATKDLNFGIRYRYDWKAYRQQDLSGDMSRDNVHRWDGYVTYHINSDFTFAWQTTLYSKQNDYRYANHKKWATENAFVLQYHMTPDITPYIEYDYLDRQGVYNGRDNLSENSYRIGVSFKL”, “soluble”. Consider “MVAISEIKSTVDVTAANCLMLLSRVGQENVDGGDQKRVFTCKTCLKQFHSFQALGGHRASHKKPNNDALSSGLMKKVKTSSHPCPICGVEFPMGQALGGHMRRHRNESGAAGGALVTRALLPEPTVTTLKKSSSGKRVACLDLSLGMVDNLNLKLELGRTVY”, for which the “soluble on expression in E. coli” value is listed as “not soluble”. On to “MGSDKIHHHHHHMLNYHHLRYFWIVAHEGNLTRAARKHNIAQSALSMQISALEEYLGQPLFERAGRRLVLTEAGHIALDFADAIFAKGDELLGTFGRLAEAHQKVLRVGALATLSRNFQVGFLRPLFADPEITVIVRSGTLDELLGSLKLYDLDIVLATGVPNRDHATPWIVHIIDTQPVGLIGQPRSDRYQQPLEVLLQREPLIVPSPESTIRTGFDALVHRLGIRPRIVAEIDDMAMMRLVAREHNGLAVIPPIVVTDELRSGMLVEYAELPELVETFCAITMPRRFPNPLLRLVLPGHTTPE”, for which the “soluble on expression in E. coli” value is recorded as “not soluble”. Take “AAIAEKDLGNAAYKQKDFEKAHVHYDKAIELDPSNITFYNNKAAVYFEEKKFAECVQFCEKAVEVGRETRADYKLIAKAMSRAGNAFQKQNDLSLAVQWFHRSLSEFRDPELVKKVKELEKQLKAAERLAYINPELAQEEKNKGNEYFKKGDYPTAMRHYNEAVKRDPENAILYSNRAACLTKLMEFQRALDDCDTCIRLDSKFIKGYIRKAACLVAMREWSKAQRAYEDALQVDPSNEEAREGVRNCLRSNDEDPEKAKERSLADPEVQEILRDPGMRMILEQMSNDPGAVREHLKNPEIFQKLMKLRD”: the “soluble on expression in E. coli” value is given as “not soluble”. With “GKSDKIIPIAENKEAKAKYDILETYEAGIVLKGSEVKSLREKGTVSFKDSFVRIENGEAWLYNLYIAPYKHATIENHDPLRKRKLLLHKREIMRLYGKVQEKGYTIIPLKLYWKNNKVKVLIALAKGKKLYDRRRELKEKAMKRELEREFKGKIHL”, the “soluble on expression in E. coli” value is “soluble”. Regarding “MGSDKIHHHHHHMTKLQLKYRELKIISVIAASENISHAATVLGIAQANVSKYLADFESKVGLKVFDRTTRQLMLTPFGTALLPYINDMLDRNEQLNNFIADYKHEKRGRVTIYAPTGIITYLSKHVIDKIKDIGDITLSLKTCNLERNAFYEGVEFPDDCDVLISYAPPKDESLVASFITQYAVTAYASQRYLEKHPISRPDELEHHSCILIDSMMIDDANIWRFNVAGSKEVRDYRVKGNYVCDNTQSALELARNHLGIVFAPDKSVQSDLQDGTLVPCFQQPYEWWLDLVAIFRKREYQPWRVQYVLDEMLREIRHQLAQSQQLRPEQAAESED”, the “soluble on expression in E. coli” value is listed as “not soluble”.
